The text below walks through data of the Immune Epitope Database (IEDB).

Experiment [1] has as its target HLA-B*44:03. In words: IEDB peptide-MHC binding, purified MHC/competitive/radioactivity; filed as Kd, often an IC50 or EC50 that approximates it; ≥ and ≤ were set here for values at or beyond the usual limits of such assays.
Experiment [2] concerns the target HLA-B*44:02. The description is as above.
Experiment [3] concerns the target HLA-A*32:01. Described as above.
The target in experiment [4] is HLA-A*01:01. Described as above.
The target of experiment [5] is HLA-A*30:02. The description is as above.
The target of experiment [6] is HLA-A*23:01. The experiment is described as above.
The target in experiment [7] is HLA-A*24:02. The description is as above.
For experiment [8], the target named is HLA-A*26:01. The description is as above.
The target of experiment [9] is HLA-A*29:02. The description is as above.
In experiment [10] the target is HLA-B*08:01. The experiment is described as above.
The target in experiment [11] is HLA-A*02:01. In words: IEDB peptide-MHC binding, purified MHC/competitive/fluorescence; ≥ and ≤ were set here for values at or beyond the usual limits of such assays. Particulars: source organism: Vaccinia virus WR.
Experiment [12] has as its target HLA-A*24:02. The experiment is described as above. Conditions: source organism: Vaccinia virus WR.
The target of experiment [13] is HLA-A*30:01. In words: IEDB peptide-MHC binding, purified MHC/competitive/radioactivity; filed as Kd, often an IC50 or EC50 that approximates it; ≥ and ≤ were set here for values at or beyond the usual limits of such assays. Particulars: source organism: Dengue virus 1 Brazil/97-11/1997.
In experiment [14] the target is HLA-B*40:01. Described as above.
The target of experiment [15] is HLA-B*51:01. The description is as above. Conditions: source organism: Dengue virus 1 Brazil/97-11/1997.
Where [16] appears, read: source organism: Dengue virus 3 Singapore/8120/1995.
[17] abbreviates: source organism: Dengue virus 1 Brazil/97-11/1997.
Setting [18] is: source organism: SARS coronavirus Tor2.
[19] abbreviates: source organism: Vaccinia virus WR.
Setting [20] is: source organism: Mammarenavirus machupoense.
[21] abbreviates: source organism: Dengue virus 2 Peru/IQT2913/1996.
[22] abbreviates: source organism: Mammarenavirus guanaritoense.
Setting [23] is: source organism: Vaccinia virus Copenhagen.
Setting [24] is: source organism: Dengue virus 4 Philippines/H241/1956.
Where [25] appears, read: source organism: Mammarenavirus juninense.
Setting [26] is: source organism: Dengue virus 2 Jamaica/1409/1983.

Consider KEEHSSTWHY, for which the Kd (commonly the concentration at which binding is half-saturated) in [1] (setting [16]) came to 205 nM; in experiment [2] (setting [16]), 42.2 nM.
Turning to FQPHQLWTTL, in experiment [3] (setting [17]), the Kd came out at 761 nM.
As to MWSFNPETNI, the Kd in experiment [4] (setting [18]) was not below 70400 nM; in experiment [5] (setting [18]) it was not below 24700 nM; in [6] (setting [18]), 407 nM; in [7] (setting [18]), 551 nM; in experiment [8] (setting [18]), not below 39100 nM; in experiment [9] (setting [18]) it was 13300 nM.
Take NVEYRFLVI: the Kd in experiment [10] (setting [19]) was 235 nM. Moreover, the IC50 (as a rule, the concentration at which inhibition is half-maximal) in [11] is not below 144000 nM; in experiment [12] it was 13700 nM.
Turning to STLIFFVII, the Kd in [3] (setting [19]) amounted to 17.8 nM.
Consider CGDPSSLDY, for which the Kd was 6.78 nM in [4] (setting [20]); 870 nM in experiment [5] (setting [20]); not below 77700 nM in experiment [6] (setting [20]); not below 77500 nM in [7] (setting [20]); not below 74600 nM in [8] (setting [20]); 4730 nM in [9] (setting [20]).
Regarding GYTMHANYIF, the Kd was not below 44100 nM in experiment [4] (setting [18]); 7590 nM in experiment [5] (setting [18]); 16.4 nM in [6] (setting [18]); 11.1 nM in experiment [7] (setting [18]); not below 41100 nM in experiment [8] (setting [18]); 407 nM in experiment [9] (setting [18]).
TELRYSWKTW: the Kd in [3] (setting [21]) was found to be 2420 nM; in experiment [1] (setting [21]), 33 nM; in experiment [2] (setting [21]) it was 7.9 nM.
For KSYAQMWQLM, in experiment [3] (setting [17]), the dissociation constant Kd came out at 89.9 nM.
Take EDAQPGLLSY: the Kd was not below 70400 nM in experiment [4] (setting [22]); 17600 nM in experiment [5] (setting [22]); not below 70000 nM in experiment [6] (setting [22]); not below 70300 nM in experiment [7] (setting [22]); not below 25800 nM in experiment [8] (setting [22]); 8210 nM in experiment [9] (setting [22]).
Consider YSIFLIFSI, for which the Kd in experiment [3] (setting [23]) worked out at 951 nM.
As to RTYCIEASI, the Kd in experiment [3] (setting [24]) is 19.2 nM.
For RRVTRKHMIL, the Kd in experiment [10] (setting [24]) came out at 64 nM.
GTINRILVI: the Kd in experiment [3] (setting [19]) was 14.5 nM.
RVYVGNVAW: the Kd in experiment [3] (setting [19]) worked out at 1.08 nM.
MMRNRTKPI: the Kd in experiment [10] (setting [23]) came to 1.49 nM.
Regarding ETWALRHPGF, the Kd in experiment [4] (setting [17]) was not below 41200 nM; in [13] it was 1900 nM; in experiment [8] (setting [17]) it was 666 nM.
Consider RQIFIHYSV, for which the Kd in experiment [3] (setting [23]) amounted to 1.04 nM.
With ILLNNPNLF, the Kd in experiment [6] (setting [22]) was found to be 423 nM; in experiment [7] (setting [22]), 793 nM; in experiment [9] (setting [22]) it was 46.7 nM.
Regarding REDLWCGSL, in experiment [14] (setting [24]), the Kd was found to be 2.35 nM.
As for KAEVSMHEV, the Kd in experiment [4] (setting [25]) was 17500 nM; in experiment [5] (setting [25]) it was not below 51900 nM; in experiment [6] (setting [25]), not below 68600 nM; in experiment [7] (setting [25]) it was not below 77500 nM; in experiment [8] (setting [25]), not below 77900 nM; in experiment [9] (setting [25]), not below 78900 nM.
Regarding SMLSIFNIV, in experiment [10] (setting [19]), the Kd was not below 77700 nM.
As for IAFLRFLAI, the Kd was 9.53 nM in [15] and 1.26 nM in experiment [10] (setting [17]).
As to CETCVYNMM, the Kd in [14] (setting [26]) came to 52.1 nM; in experiment [2] (setting [26]), 92.2 nM.
As for SIHEKFWPL, the Kd in experiment [10] (setting [19]) turned out to be 1.36 nM.
In the case of YENLKYTVII, in [14] (source organism: Dengue virus 3 Martinique/1243/1999), the Kd stood at 2.82 nM.
For the sequence SEMIIPKNFA, the Kd in experiment [1] (setting [26]) came to 25 nM; in [14] (setting [26]), 8440 nM; in [2] (setting [26]), 12 nM.
